In one test the target is Elastase. Put plainly: cell-based or functional assay.
The target of the next test is T1, Cathepsin G (UniProt P08311 21-244).
T1 sequence (looked up): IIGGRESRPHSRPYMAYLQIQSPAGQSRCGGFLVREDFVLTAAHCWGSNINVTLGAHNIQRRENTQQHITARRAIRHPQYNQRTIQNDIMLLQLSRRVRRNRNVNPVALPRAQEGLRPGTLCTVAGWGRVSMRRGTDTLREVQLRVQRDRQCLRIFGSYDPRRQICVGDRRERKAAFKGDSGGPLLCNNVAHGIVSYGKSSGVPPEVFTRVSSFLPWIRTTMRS
As to the kind of experiment: cell-based or functional assay.

B1: Variant A2M, bait region SEQ ID NO 143 (other)
chain: SVSGKPQYMVLVPSLLHTETTEKGCVLLSYLNETVTVSASLESVRGNRSLFTDLEAENDVLHCVAFAVPKSSSNEEVMFLTVQVKGPTQEFKKRTTVMVKNEDSLVFVQTDKSIYKPGQTVKFRVVSMDENFHPLNELIPLVYIQDPKGNRIAQWQSFQLEGGLKQFSFPLSSEPFQGSYKVVVQKKSGGRTEHPFTVEEFVLPKFEVQVTVPKIITILEEEMNVSVCGLYTYGKPVPGHVTVSICRKYSDASDCHGEDSQAFCEKFSGQLNSHGCFYQQVKTKVFQLKRKEYEMKLHTEAQIQEEGTVVELTGRQSSEITRTITKLSFVKVDSHFRQGIPFFGQVRLVDGKGVPIPNKVIFIRGNEANYYSNATTDEHGLVQFSINTTNVMGTSLTVRVNYKDRSPCYGYQWVSEEHEEAHHTAYLVFSPSKSFVHLEPMSHELPCGHTQTVQAHYILNGGTLLGLKKLSFYYLIMAKGGIVRTGTHGLLVKQEDMKGHFSISIPVKSDIAPVARLLIYAVLPTGDVIGDSAKYDVENCLANKVDLSFSPSQSLPASHAHLRVTAAPQSVCALRAVDQSVLLMKPDAELSASSVYNLLPEKDLTGFPGPLNDQDDEDCINRHNVYINGITYTPVSSTNEKDMYSFLEDMGLKAFTNSKIRKPKMCPQLEQYEMHGPIPENFFGVSEDLVVQIEGEGEGEGEAIPMSIPTEPHTKLRKYFPETWIWDLVVVNSAGVAEVGVTVPDTITEWKAGAFCLSEDAGLGISSTASLRAFQPFFVELTMPYSVIRGEAFTLKATVLNYLPKCIRVSVQLEASPAFLAVPVEKEQAPHCICANGRQTVSWAVTPKSLGNVNFTVSAEALESQELCGTEVPSVPEHGRKDTVIKPLLVEPEGLEKETTFNSLLCPSGGEVSEELSLKLPPNVVEESARASVSVLGDILGSAMQNTQNLLQMPYGCGEQNMVLFAPNIYVLDYLNETQQLTPEIKSKAIGYLNTGYQRQLNYKHYDGSYSTFGERYGRNQGNTWLTAFVLKTFAQARAYIFIDEAHITQALIWLSQRQKDNGCFRSSGSLLNNAIKGGVEDEVTLSAYITIALLEIPLTVTHPVVRNALFCLESAWKTAQEGDHGSHVYTKALLAYAFALAGNQDKRKEVLKSLNEEAVKKDNSVHWERPQKPKAPVGHFYEPQAPSAEVEMTSYVLLAYLTAQPAPTSEDLTSATNIVKWITKQQNAQGGFSSTQDTVVALHALSKYGAATFTRTGKAAQVTIQSSGTFSSKFQVDNNNRLLLQQVSLPELPGEYSMKVTGEGCVYLQTSLKYNILPEKEEFPFALGVQTLPQTCDEPKAHTSFQISLSVSYTGSRSASNMAIVDVKMVSGFIPLKPTVKMLERSNHVSRTEVSSNHVLIYLDKVSNQTLSLFFTVLQDVPVRDLKPAIVKVYDYYETDEFAIAEYNAPCSKDLGNADYKDDDDKGASHHHHHH
Turning to B1, the “Protease Inhibition (% of WT)” value with Elastase is 250 % of WT; in the test with Cathepsin G, 350 % of WT.

B2: Variant A2M, bait region SEQ ID NO 137 (other)
chain: SVSGKPQYMVLVPSLLHTETTEKGCVLLSYLNETVTVSASLESVRGNRSLFTDLEAENDVLHCVAFAVPKSSSNEEVMFLTVQVKGPTQEFKKRTTVMVKNEDSLVFVQTDKSIYKPGQTVKFRVVSMDENFHPLNELIPLVYIQDPKGNRIAQWQSFQLEGGLKQFSFPLSSEPFQGSYKVVVQKKSGGRTEHPFTVEEFVLPKFEVQVTVPKIITILEEEMNVSVCGLYTYGKPVPGHVTVSICRKYSDASDCHGEDSQAFCEKFSGQLNSHGCFYQQVKTKVFQLKRKEYEMKLHTEAQIQEEGTVVELTGRQSSEITRTITKLSFVKVDSHFRQGIPFFGQVRLVDGKGVPIPNKVIFIRGNEANYYSNATTDEHGLVQFSINTTNVMGTSLTVRVNYKDRSPCYGYQWVSEEHEEAHHTAYLVFSPSKSFVHLEPMSHELPCGHTQTVQAHYILNGGTLLGLKKLSFYYLIMAKGGIVRTGTHGLLVKQEDMKGHFSISIPVKSDIAPVARLLIYAVLPTGDVIGDSAKYDVENCLANKVDLSFSPSQSLPASHAHLRVTAAPQSVCALRAVDQSVLLMKPDAELSASSVYNLLPEKDLTGFPGPLNDQDDEDCINRHNVYINGITYTPVSSTNEKDMYSFLEDMGLKAFTNSKIRKPKMCPQLEQYEMHGPSEDLVVQIKEEEGLGSIPENFFGVSELEGRGSVEEPHTKLRKYFPETWIWDLVVVNSAGVAEVGVTVPDTITEWKAGAFCLSEDAGLGISSTASLRAFQPFFVELTMPYSVIRGEAFTLKATVLNYLPKCIRVSVQLEASPAFLAVPVEKEQAPHCICANGRQTVSWAVTPKSLGNVNFTVSAEALESQELCGTEVPSVPEHGRKDTVIKPLLVEPEGLEKETTFNSLLCPSGGEVSEELSLKLPPNVVEESARASVSVLGDILGSAMQNTQNLLQMPYGCGEQNMVLFAPNIYVLDYLNETQQLTPEIKSKAIGYLNTGYQRQLNYKHYDGSYSTFGERYGRNQGNTWLTAFVLKTFAQARAYIFIDEAHITQALIWLSQRQKDNGCFRSSGSLLNNAIKGGVEDEVTLSAYITIALLEIPLTVTHPVVRNALFCLESAWKTAQEGDHGSHVYTKALLAYAFALAGNQDKRKEVLKSLNEEAVKKDNSVHWERPQKPKAPVGHFYEPQAPSAEVEMTSYVLLAYLTAQPAPTSEDLTSATNIVKWITKQQNAQGGFSSTQDTVVALHALSKYGAATFTRTGKAAQVTIQSSGTFSSKFQVDNNNRLLLQQVSLPELPGEYSMKVTGEGCVYLQTSLKYNILPEKEEFPFALGVQTLPQTCDEPKAHTSFQISLSVSYTGSRSASNMAIVDVKMVSGFIPLKPTVKMLERSNHVSRTEVSSNHVLIYLDKVSNQTLSLFFTVLQDVPVRDLKPAIVKVYDYYETDEFAIAEYNAPCSKDLGNADYKDDDDKGASHHHHHH
In the case of B2, the “Protease Inhibition (% of WT)” value is 100 % of WT with Elastase and 450 % of WT in the test with Cathepsin G.

B3: Variant A2M, bait region SEQ ID NO 141 (other)
chain: SVSGKPQYMVLVPSLLHTETTEKGCVLLSYLNETVTVSASLESVRGNRSLFTDLEAENDVLHCVAFAVPKSSSNEEVMFLTVQVKGPTQEFKKRTTVMVKNEDSLVFVQTDKSIYKPGQTVKFRVVSMDENFHPLNELIPLVYIQDPKGNRIAQWQSFQLEGGLKQFSFPLSSEPFQGSYKVVVQKKSGGRTEHPFTVEEFVLPKFEVQVTVPKIITILEEEMNVSVCGLYTYGKPVPGHVTVSICRKYSDASDCHGEDSQAFCEKFSGQLNSHGCFYQQVKTKVFQLKRKEYEMKLHTEAQIQEEGTVVELTGRQSSEITRTITKLSFVKVDSHFRQGIPFFGQVRLVDGKGVPIPNKVIFIRGNEANYYSNATTDEHGLVQFSINTTNVMGTSLTVRVNYKDRSPCYGYQWVSEEHEEAHHTAYLVFSPSKSFVHLEPMSHELPCGHTQTVQAHYILNGGTLLGLKKLSFYYLIMAKGGIVRTGTHGLLVKQEDMKGHFSISIPVKSDIAPVARLLIYAVLPTGDVIGDSAKYDVENCLANKVDLSFSPSQSLPASHAHLRVTAAPQSVCALRAVDQSVLLMKPDAELSASSVYNLLPEKDLTGFPGPLNDQDDEDCINRHNVYINGITYTPVSSTNEKDMYSFLEDMGLKAFTNSKIRKPKMCPQLEQYEMHGPEAIPMSIPTSELEGRGSIPENFFGVEGEGEGEGEPHTKLRKYFPETWIWDLVVVNSAGVAEVGVTVPDTITEWKAGAFCLSEDAGLGISSTASLRAFQPFFVELTMPYSVIRGEAFTLKATVLNYLPKCIRVSVQLEASPAFLAVPVEKEQAPHCICANGRQTVSWAVTPKSLGNVNFTVSAEALESQELCGTEVPSVPEHGRKDTVIKPLLVEPEGLEKETTFNSLLCPSGGEVSEELSLKLPPNVVEESARASVSVLGDILGSAMQNTQNLLQMPYGCGEQNMVLFAPNIYVLDYLNETQQLTPEIKSKAIGYLNTGYQRQLNYKHYDGSYSTFGERYGRNQGNTWLTAFVLKTFAQARAYIFIDEAHITQALIWLSQRQKDNGCFRSSGSLLNNAIKGGVEDEVTLSAYITIALLEIPLTVTHPVVRNALFCLESAWKTAQEGDHGSHVYTKALLAYAFALAGNQDKRKEVLKSLNEEAVKKDNSVHWERPQKPKAPVGHFYEPQAPSAEVEMTSYVLLAYLTAQPAPTSEDLTSATNIVKWITKQQNAQGGFSSTQDTVVALHALSKYGAATFTRTGKAAQVTIQSSGTFSSKFQVDNNNRLLLQQVSLPELPGEYSMKVTGEGCVYLQTSLKYNILPEKEEFPFALGVQTLPQTCDEPKAHTSFQISLSVSYTGSRSASNMAIVDVKMVSGFIPLKPTVKMLERSNHVSRTEVSSNHVLIYLDKVSNQTLSLFFTVLQDVPVRDLKPAIVKVYDYYETDEFAIAEYNAPCSKDLGNADYKDDDDKGASHHHHHH
Take B3: the “Protease Inhibition (% of WT)” value with Elastase is 75 % of WT; with Cathepsin G, 100 % of WT.

Source of the values: patent publication US20230250154A1 (CYTONICS, published 2023).
